# Measurements as given in patent publication US20180044415A1 (AbbVie / Abbott, published 2018).
# Substitutions are numbered along the chain they refer to.
# T1: human DLL3 (immobilized human DLL3 or h293-hDLL3 cells) (human, UniProt Q9NYJ7 27-492, limits assumed)
# T1 construct: the sentence says 'immobilized human DLL3 or h293-hDLL3 cells'
# T1 sequence: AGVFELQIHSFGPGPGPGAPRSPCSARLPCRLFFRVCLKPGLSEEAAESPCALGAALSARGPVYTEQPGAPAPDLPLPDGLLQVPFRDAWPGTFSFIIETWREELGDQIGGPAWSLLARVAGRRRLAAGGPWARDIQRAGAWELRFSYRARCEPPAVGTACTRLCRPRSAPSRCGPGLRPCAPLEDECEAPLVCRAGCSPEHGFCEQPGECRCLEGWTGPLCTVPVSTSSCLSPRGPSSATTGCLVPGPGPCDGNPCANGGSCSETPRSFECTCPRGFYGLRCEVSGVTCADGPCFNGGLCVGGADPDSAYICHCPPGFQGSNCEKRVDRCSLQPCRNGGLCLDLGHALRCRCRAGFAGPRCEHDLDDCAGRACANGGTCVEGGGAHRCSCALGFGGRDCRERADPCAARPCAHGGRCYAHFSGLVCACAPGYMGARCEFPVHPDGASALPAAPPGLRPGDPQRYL
# B1: SC16.80 (antibody, V domains shown)
# VH: EVQLQQSGPELVKPGGSKKISCKASGYSFTGYSMNWVKQSHGKNLEWIGLINPYSGGTIYNQKFKGKATLTVDKSSSTAYMELLSLTSEDSAVYYCARRSDYPLVYWGQGTLVTVSA
# VL: ETTVTQSPASLSMAIGEKVTIRCITSTDIDDDMIWYQQKPGEPPKLLISEGNTLRPGVPSRFSSSGYGTDFVFTIENMLSEDVADYYCLKRDDLPYTFGGGTQVEIK
# notes: murine mAb; variable regions only
# B2: SC16.81 (antibody, V domains shown)
# VH: QVQLKESGPVLVAPSQSLSITCTVSGFSLTSYGVHWVRQPPGKGLEWLGVIWAGGSTNYNSALMSRLSISKDNSKSQVFLKMNSLQTDDTAMYYCAKQGNFYAMDYWGQGTSVTVSS
# VL: QIVLTQSPAIMSASLGERVTLTCTASSSVSSSYLHWYQQKPGSSPKLWIYSTSNLASGVPTRFSGSGSGTSYSLRISSMEAEDAATYYCHQYNRSPLTFGAGTKLELK
# notes: as for B1
# B3: SC16.84 (antibody, V domains shown)
# VH: EVQLQQSGPELVKPGASMKISCKASGYSFTGYTMNWVKQSHGKNLEWIGLINPYNGGTTYNQKFKGKATLTVDKSSSTAYMELLSLTSEDSAVYYCALGYYGNYRRYFDVWGAGTTVTVSS
# VL: DIQMTQSPSSLSASLGGKVTITCKASQDIKKYIAWYQHKPGKGPRLLIHYTSTLEPGIPSRFSGSGSGRDYSFSISNLEPEDIATYYCLQYDILWTFGGGTKLEIK
# notes: as for B1
# B4: SC16.88 (antibody, V domains shown)
# VH: QVQLQQSGAELARPGASVKLSCKASGYTCTSYWMQWVKQRPGQGLEWIGAIYPGDGDTRYTQKFKGKATLTADKSSSTAYMQLSSLASEDSAVYYCARGRRTEAWFAYWGQGTLVTVSA
# VL: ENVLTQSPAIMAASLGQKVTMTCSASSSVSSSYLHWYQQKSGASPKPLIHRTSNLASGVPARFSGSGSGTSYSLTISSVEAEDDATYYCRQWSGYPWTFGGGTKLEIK
# notes: as for B1
# B5: SC16.101 (antibody, V domains shown)
# VL: B2 VL with L21M, T61A, G67E, R75T, S78N, N93H, L97F, A101S, L107I
# V domain: QVTLKESGPGILQPSQTLSLTCSFSGFSLSTSGMGVGWIRQPSGKGLEWLAHIWWDDVKRYNPALKSRLTISKDASSSQVFLKIASVDTAETATYYCAHILDRAYYFDYWGQGTTLTVTS
# notes: as for B1
# B6: SC16.103 (antibody, V domains shown)
# VH: QVTLKESGPGILKPSQTLSLTCSFSGFSLSTSGMGIGWIRQPSGKGLEWLAHIWWDDDKYYNPSLKSQLTISKDSSRNQVFLKITSVDTADTATYYCARRGTAYYFDYWGQGTTLTVSS
# VL: DIVLTQSPASLAVSLGQRATISCRASKSVSTSGYSYMHWYQQKPGQPPKLLIYLASNLESGVPARFSGSGSGTDFTLNIHPVEEEDAATYYCQHSRELPLTFGAGTKLELK
# notes: as for B1
# B7: SC16.104 (antibody, V domains shown)
# VH: QVQLKESGPDLVQPSQTLSLTCTVSGFSLTFYGVHWVRQPPGKGLEWVGTMGWDDKKYYNSALKSRLSISRDTSKNQVFLKLSSLQTEDTAMYYCTRGGTGFDYWGQGTTLTVSS
# VL: QIVLSQSPAILSASPGEKVTMTCRASSSVSYIHWYRQKPGSSPKPWIYATSNLASGVPARFSGSGSGTSYSLTISRVEAEDAATYYCQQWSSNPPTFGAGTKLELK
# notes: as for B1
# B8: SC16.105 (antibody, V domains shown)
# VH: QVQLQQPGAELVKPGASVKLSCKASGYTFTSYWMHWVKQRPGQGLEWIGVINPSNGRTNYNEKFKSKATLTVDKSSSTAYMQLSSLTSEDSAVYYCARRRELGTLYAMDYWGQGTSVTVSS
# VL: DIVMTQSHKFMSTSVGDRVSITCKASQDVGTAVAWYQQKPGQSPKLLIYWASIRHTGVPDRFTGSGSGTDFTLTISNVQSEDLADYFCQQYSSYPLTFGAGTKLELK
# notes: as for B1
# B9: SC16.106 (antibody, V domains shown)
# VH: QVQLKQSGPGLVAPSQSLFITCTVSGFSLTSYEINWVRQPPGKGLEWLGVIWTGGSTNYNSALISRLSISKDNSKSLVFLKMNSLQTDDTAIYYCVRGVYAMDYWGQGTSVTVSS
# VL: DIKMTQSPSSMYASLGERVTITCKASQDINSYLSWFQQKPGKSPKTLIYRANRLVDGVPSRFSGSGSGQDYSLTISSLEYEDMGIYYCLQYDEFPFTFGSGTKLEIK
# notes: as for B1
# Biological target: T1, human DLL3 (immobilized human DLL3 or …)
# Assay: hybridoma screening on immobilized human DLL3 or on h293-hDLL3 cells
row,Binder,binding result
1,B1,binds
2,B2,binds
3,B3,binds
4,B4,binds
5,B5,binds
6,B6,binds
7,B7,binds
8,B8,binds
9,B9,binds
